Test results reported in US20120121596A1 (published 2012).
Substitutions are numbered along the chain they refer to.

How the values were obtained:
HER3 (form not given) = HER3 (form not given) (human, UniProt P21860 20-643, limits assumed); assay: affinity maturation of DL11
[1] = biological target: T1, human HER3-Fc (Example 9) (human, UniProt P21860 20-640); assay: SPR BIAcore 2000, Fc fusion captured on CM5 with human Antibody Capture Kit, Fab analyte 0.244-250 nM, 25 C, 1:1 Langmuir
T1 construct: range 1-640; Produced in CHO cells, protein A purified; also called human HER3-IgG1; not shown: Fc region of human IgG1

[2] = biological target: T2, human EGFR-Fc (Example 9) (human, UniProt P00533 25-637); assay: as above
T2 construct: range 1-637; Produced in CHO cells, protein A purified; also called Recombinant human EGFR-IgG1; not shown: Fc region of human IgG1

[3] = biological target: T1, human HER3-Fc (Example 9); assay: SPR, both experiments; reference: affinity for EGFR
[4] = biological target: T3, hEGFR-ECD-Fc (human EGFR extracellular domain fused to an Fc region of human IgG1) (human, UniProt P00533 25-645); assay: direct phage ELISA, proteins coated at 2 µg/ml, phage-Fab supernatant, OD450;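 also: specificity test of dual-activity clones, with binding assessed across an antigen panel to check whether each recognises only its cognate target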
T3 construct: extracellular domain; not shown: Fc region of human IgG1

BSA [5] = biological target: T4, BSA (bovine, UniProt P02769); assay: as above
T4 construct: also called bovine serum albumin
T4 sequence (P02769 25-607 limits assumed): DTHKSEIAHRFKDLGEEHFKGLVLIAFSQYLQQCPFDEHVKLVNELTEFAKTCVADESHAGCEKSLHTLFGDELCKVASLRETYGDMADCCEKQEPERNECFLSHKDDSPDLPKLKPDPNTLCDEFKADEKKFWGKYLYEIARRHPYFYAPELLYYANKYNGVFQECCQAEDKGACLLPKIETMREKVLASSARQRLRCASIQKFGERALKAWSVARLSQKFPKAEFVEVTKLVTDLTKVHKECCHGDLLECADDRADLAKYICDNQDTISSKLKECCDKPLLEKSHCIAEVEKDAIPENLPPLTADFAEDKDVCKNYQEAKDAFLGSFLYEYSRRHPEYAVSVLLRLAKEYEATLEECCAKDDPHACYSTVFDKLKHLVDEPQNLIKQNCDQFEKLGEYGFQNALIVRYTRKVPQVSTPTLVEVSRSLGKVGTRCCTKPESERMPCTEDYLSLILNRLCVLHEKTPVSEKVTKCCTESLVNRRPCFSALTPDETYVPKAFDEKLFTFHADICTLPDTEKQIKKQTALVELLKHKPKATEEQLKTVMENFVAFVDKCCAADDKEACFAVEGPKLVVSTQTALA

HER2-ECD [6] = biological target: T5, HER2-ECD (human, UniProt P04626 23-652); assay: as above
T5 construct: extracellular domain

HER4-ECD-Fc [7] = biological target: T6, HER4-ECD-Fc (human, UniProt Q15303 26-651, limits assumed); assay: as above
T6 construct: extracellular domain
T6 sequence (looked up): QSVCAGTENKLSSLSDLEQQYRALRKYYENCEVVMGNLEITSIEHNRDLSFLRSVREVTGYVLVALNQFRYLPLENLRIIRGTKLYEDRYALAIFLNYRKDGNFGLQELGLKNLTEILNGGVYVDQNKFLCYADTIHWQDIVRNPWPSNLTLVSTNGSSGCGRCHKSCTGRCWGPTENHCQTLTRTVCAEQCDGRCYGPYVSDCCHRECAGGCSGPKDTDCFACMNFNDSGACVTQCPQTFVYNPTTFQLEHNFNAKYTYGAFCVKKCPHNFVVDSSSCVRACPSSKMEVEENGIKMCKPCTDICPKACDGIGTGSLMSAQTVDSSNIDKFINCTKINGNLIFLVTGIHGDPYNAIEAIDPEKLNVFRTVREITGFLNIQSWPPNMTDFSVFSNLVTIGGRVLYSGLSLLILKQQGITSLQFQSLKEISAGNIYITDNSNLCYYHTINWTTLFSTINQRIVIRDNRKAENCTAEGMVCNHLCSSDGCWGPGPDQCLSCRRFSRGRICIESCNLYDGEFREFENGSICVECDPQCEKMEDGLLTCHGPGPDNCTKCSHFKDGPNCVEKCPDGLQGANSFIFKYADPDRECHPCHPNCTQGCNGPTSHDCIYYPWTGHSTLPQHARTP

HER3-ECD-Fc [8] = biological target: T7, HER3-ECD-Fc (human, UniProt P21860 20-643, limits assumed); assay: as above
T7 construct: extracellular domain; also called HER3-FC; HER3-IgG

Xolair [9] = biological target: T8, Xolair; assay: as above
T8 construct: not shown: the constant regions

HER2-ECD [10] = biological target: T5, HER2-ECD; assay: phage IC50 (solution competition ELISA), compared to D1.5-201
hEGFR-ECD [11] = biological target: T9, hEGFR-ECD (human, UniProt P00533 25-645); assay: as above
T9 construct: extracellular domain

[12] = biological target: T10, monomeric human EGFR-ecd (Example 9) (human, UniProt P00533 25-637); assay: SPR BIAcore 2000, DL11f human IgG1 immobilized on CM5, monomeric ecd analyte 0.244-250 nM, 25 C
T10 construct: range 1-637

[13] = biological target: T11, monomeric human HER3-ecd (Example 9) (human, UniProt P21860 20-643); assay: as above
T11 construct: extracellular domain

[14] = biological target: T11, monomeric human HER3-ecd (Example 9); assay: SPR, both experiments; reference: affinity for EGFR
[15] = biological target: HER3 on cells (MCF7 cells; MDA-175 cells) (UniProt P21860 20-1342, limits assumed); assay: cell-based or functional assay
hEGFR-ECD [16] = biological target: T9, hEGFR-ECD; assay: phage solution binding competition ELISA as in Example 1, antigen in solution varied
HER3-ECD-Fc [17] = biological target: T7, HER3-ECD-Fc; assay: as above
TGF-α = biological target: T12, TGF-α; assay: direct phage ELISA on coated proteins as in Example 5, OD450
T12 construct: also called transforming growth factor alpha

BSA [18] = biological target: T4, BSA; assay: as above
mHER3-Fc = biological target: T13, mHER3-Fc; assay: as above
T13 chain: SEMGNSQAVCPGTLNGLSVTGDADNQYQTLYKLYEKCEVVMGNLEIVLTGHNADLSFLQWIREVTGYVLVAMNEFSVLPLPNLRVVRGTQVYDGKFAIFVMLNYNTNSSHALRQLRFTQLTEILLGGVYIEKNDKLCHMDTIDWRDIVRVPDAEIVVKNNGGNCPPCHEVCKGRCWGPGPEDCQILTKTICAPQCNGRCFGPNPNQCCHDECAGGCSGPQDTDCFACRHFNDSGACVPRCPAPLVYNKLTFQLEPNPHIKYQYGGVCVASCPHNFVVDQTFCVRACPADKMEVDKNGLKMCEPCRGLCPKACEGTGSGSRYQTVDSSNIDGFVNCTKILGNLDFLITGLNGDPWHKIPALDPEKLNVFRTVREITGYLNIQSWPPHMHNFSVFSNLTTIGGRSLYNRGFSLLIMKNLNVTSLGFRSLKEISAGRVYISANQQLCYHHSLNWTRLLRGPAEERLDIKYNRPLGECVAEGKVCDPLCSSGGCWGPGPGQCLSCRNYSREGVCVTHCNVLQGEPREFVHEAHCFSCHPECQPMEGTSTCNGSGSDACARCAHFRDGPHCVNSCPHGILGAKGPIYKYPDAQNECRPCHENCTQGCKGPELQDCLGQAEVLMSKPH

HER2-ECD [19] = biological target: T5, HER2-ECD; assay: as above
HER4-ECD-Fc [20] = biological target: T6, HER4-ECD-Fc; assay: as above
Xolair [21] = biological target: T8, Xolair; assay: as above
mEGFR-ECD-Fc = biological target: T14, mEGFR-ECD-Fc (murine, UniProt Q01279 25-647); assay: competitive ELISA: serial dilutions of mEGFR-ECD-Fc with fixed D1.5 on hEGFR-ECD-Fc coated plate
T14 construct: extracellular domain; also called murine EGFR; not shown: Fc

hEGFR-ECD [22] = biological target: T9, hEGFR-ECD; assay: SPR, BIAcore-2000, mIgG D1.5 immobilized on CM5 (~150 RU), EGFR-ECD 12.5-200 nM as analyte, 25 C, 1:1 Langmuir model

B1: DL3-11f (antibody, V domains shown)
VH: EVQLVESGGGLVQPGGSLRLSCAASGFTLSGDWIHWVRQAPGKGLEWVGEISAAGGYTDYADSVKGRFTISADTSKNTAYLQMNSLRAEDTAVYYCARESKVSFEAAMDYWGQGTLVTVSS
VL: DIQMTQSPSSLSASVGDRVTITCRASQNIATDVAWYQQKPGKAPKLLIYSASFLYSGVPSRFSGSGSGTDFTLTISSLQPEDFATYYCQQSEPEPYTFGQGTKVEIKR
binding result (HER3 (form not given)): binds

B2: DL11f Fab (Fab, V domains shown)
VH: B1 VH with K101R
VL: B1 VL
Kd [1]: 0.39 nM | Kd [2]: 1.92 nM | fold higher affinity for HER3 than for EGFR [3]: 5 to 8 fold

B3: D1.5-400 (phage-displayed Fab clone) (Fab, V domains shown)
VH: B1 VH with L29F, S30T, D32N, A53P, A54S, K101R, F104Y
VL: DIQMTQSPSSLSASVGDRVTITCRASQDVLFYGNVAWYQQKPGKAPKLLIYDGSYLYSGVPSRFSGSGSGTDFTLTISSLQPEDFATYYCQQSYPAPYTFGQGTKVEIKR
notes: EGFR/HER4 clone
binding result [4]: binds | binding result (BSA [5]): no binding | binding result (HER2-ECD [6]): no binding | binding result (HER4-ECD-Fc [7]): binds | binding result (HER3-ECD-Fc [8]): no binding | binding result (Xolair [9]): no binding

B4: D1.5-201-3 (phage-displayed Fab clone) (Fab, V domains shown)
VH: B1 VH with L29F, S30T, D32N, A53P, A54S, K101R, F104Y
VL: DIQMTQSPSSLSASVGDRVTITCRASQSLWAAYFAPVAWYQQKPGKAPKLLIYDGSYLYSGVPSRFSGSGSGTDFTLTISSLQPEDFATYYCQQRLPSPYTFGQGTKVEIKR
binding result (HER2-ECD [10]): binds | binding result (hEGFR-ECD [11]): binds

B5: DL11f (human IgG1) (bispecific antibody, V domains shown)
VH: B1 VH with K101R
VL: B1 VL
Kd [12]: 19.9 nM | Kd [13]: 2.63 nM | fold higher affinity for HER3 than for EGFR [14]: 5 to 8 fold | IC50 of inhibition of MDA-175 cell proliferation [15]: 0.8 to 1 µg/mL

B6: DL3-11b (antibody, V domains shown)
VH: B1 VH with V48L
VL: B1 VL
notes: also called DL3-11fb
binding result (HER3 (form not given)): binds

B7: DL7 (phage-displayed Fab clone) (Fab, V domains shown)
VH: B1 VH with S100A, K101R, F104Y
VL: B1 VL with N28D, I29L
IC50 (hEGFR-ECD [16]): 6.1 nM | IC50 (HER3-ECD-Fc [17]): 0.25 nM | binding result (TGF-α): no binding | binding result (BSA [18]): no binding | binding result (mHER3-Fc): no binding | binding result (HER2-ECD [19]): no binding | binding result (HER4-ECD-Fc [20]): no binding | binding result (Xolair [21]): no binding

B8: D1.5 (mIgG2A) (antibody, V domains shown)
VH: B1 VH with L29F, S30T, D32N, A53P, A54S, K101R, F104Y
VL: B1 VL with N28D, I29V, A30S, D32A, E92Y, E94T
notes: also called mIgG D1.5; anti-EGFR mIgG2A
binding result (mEGFR-ECD-Fc): binds | Kd (hEGFR-ECD [22]): 1.2 nM

B9: DL11 (phage-displayed Fab clone) (Fab, V domains shown)
VH: B1 VH with V48L, K101R
VL: B1 VL with N28D, I29L
notes: single Fab on phage
IC50 (hEGFR-ECD [16]): 5.7 nM | IC50 (HER3-ECD-Fc [17]): 0.43 nM | binding result (TGF-α): no binding | binding result (BSA [18]): no binding | binding result (mHER3-Fc): no binding | binding result (HER4-ECD-Fc [20]): no binding | binding result (Xolair [21]): no binding

B10: D1.5-201-2 (phage-displayed Fab clone) (Fab, V domains shown)
VH: B1 VH with L29F, S30T, D32N, A53P, A54S, K101R, F104Y
VL: B4 VL with S26N, L29I, W30A, A31G, F34Y, S56Y, Y57F
binding result (HER2-ECD [10]): binds | binding result (hEGFR-ECD [11]): binds
